From the nanobody polyreactivity screen of Harvey et al. (2022)

Test: yeast display, Sf9 membrane polyspecificity reagent, FACS + sequencing; frameworks hold sequencing errors
In short: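 Galactose-induced (36–48 hours) yeast carrying a synthetic nanobody display library were exposed to 10% biotinylated, detergent-solubilized Sf9 membrane reagent at 4 °C for 1 hour. FACS followed streptavidin microbead enrichment, using low and high (top ~1%) gates for expression (anti-HA) and reagent binding (streptavidin). Colony PCR, MiSeq 2 × 250 sequencing and CDR-length filtering followed. Labels for polyreactivity reflect the gate of origin.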

Row | Sequence | polyreactivity (PSR sort gate)
1 | QVQLVESGGGLVQSGGSLRLSCAASGRTFKSYAMGWYRQAPGKERELVAAITWSGGSTYYADSVKGRFTISRDNAKITVYFQMNSLKPEDTAVYYCAADSVYYYWYGYDYWGQGTQVTVSS | low polyreactivity
2 | QVQLVESGGGLYQAGGSLRLNCAASGYIFQTYAMVWYRQAPGKEREFVAAITSGAGRTSYADSVKGRFTISRDNAKNTVYLELNSLIPEVTAVYYCNARGRKRSYHRKSSDPYGYWGQGNQVTVSS | high polyreactivity
3 | QVQLVESGGGLVQAGGSLRLSCAASGLPFQEYAMGWYRQAPGKEREFVAAISASGGSTYYADSVKGRFTISRDNAKNTVYLQMNSLKPEDTAVYYCNKYGTVGYGSYGYWGQGTQVTVSS | high polyreactivity
4 | QVQLVESGGGLVQAGGSLRLSCAASGSIFSQYVMGWYRQAPGKERELVAAISSGGITYYADSVKGRFTISRDNAKNTVYLQMNSLKPEDTAVYYCNKTSWYQYGYWGQGTQVTVSS | low polyreactivity
5 | QVQLVESGGGLVQAGGSLRLSCAASGSTLYSYAMGWYRQAPGKERELVAAISIGGRTYYADSVKGRFTISRDNAKNTVYLQMNSLKPEDTAVYYCNKYYGPRTYLSAQGRSYGYWGQGTQVTVSS | high polyreactivity
6 | QVQLVESGGGIVQAGGSLRLSCAASGNTYRWYAMGWNIQAPGKEREFVADITVRGGSTYYADSVKGRFTISRDNAKNTVYLQMNSLKPEDTAVYYCAADYRYGGSRGYRYDYWGQGTQVTVSS | low polyreactivity
7 | QVQLVESGGGLVQAGGSLRLSCAASGNTFYPYAMGWYRQAPGKERELVAAITSSGGSTYYADSVNGRFTISRDNAKNTVYLQMNSLKPEDTAVYYCAAYIYFLGMDYWGQGTQVTVSS | low polyreactivity
8 | QVQLVESGGGLVQAGGSLRLSCAASGITIYKYAMGWSRQAPGKERELVAVISRSGGSTYYADSVKGRFTISRDNAKNTVYLQMNSLKPEDTAVYYCAADYRYPRQSKYYYWGQGTQVTVSS | high polyreactivity
9 | QVQLVESGGGLDQAGGSLRLSCAASGSIFYFYTMGWYRQAPGKEREFVAAINGIGGSTYYADSVKGRFTISRDNAKNTVYLQMNRLKPEDTAVYYCAADAPWFKRNARKYNYWGQGTQVTVSS | low polyreactivity
10 | QVQLVESGGGLVQAGGSLRLTCAASGYIFRLNAMGWYRQAPGKEMELVAGISPGGRTNYADSVKGRFTISRDNAKNTVNLQMNSLKPEDTAVYYCAAAWNTAYWVGSDSLGGGYWGLGTQVTVSS | low polyreactivity
11 | QVQLVESGGGLVQAGGSLRLSCAASGSIFHTYAMGWYRQAPGKERELVAAISGIGGSTYYADSVKGRFTISRDNAKNTVYLQMNSLKPEDTAVYYCAVELYWYPGYDYWGQGTQVTVSS | low polyreactivity
12 | RVQLVESGGGLVQAGGSLRLSCAASGRIFKYYAMGWYRPAPGTERELVASITIGSTTYADSVKGRFTISRDNAMNTVYLHMNSLKPEDTAVYYCNRVYRQRLGRDYWGQGTQVTVSS | high polyreactivity
13 | QVQHVESGGGLVQAGGSLRLSSAASGRTYWPNAMGWYRQAPGKERELVAAISSGGSTNYADSVKGSFTISRDNAKNTVYLQMNSLKPEDTAVYFWSADGQGDKYDYYGHNYWGQGTHVTVSS | low polyreactivity
14 | QVQLVESGGGLVQARGSLRLRFAASGSTFPYYAMGWDRQAPGKERELVATITKRGGRKYYADSVKGRFTISRDNAKNTVYFLMTSLKPEDTAVYYCAARFRFAVTYDYWGQGTQVTVSS | high polyreactivity
15 | QVQLVESGGGLVQAGGSLRLSCAASGRTIPWNVMGWYRQAPGKERELVATITSRRTSTNYADSVKARFTISRDNAKNTVYLPMNSLKPEDTAVYYCARRTVWGAGHYYYWGQGTQVTVSS | high polyreactivity
16 | QVQLVESGGGLVQAGGSLRLSCAASGLIFRWYAMGWYRQAPGTERELVAAISRRGGTTNYADSVKGRFTISRDNAKNTVYLQMNSLKPEDTAVYYCAADYQSVGGAEYDYWGQCTQVTVSS | high polyreactivity
17 | QVQLVESGGGLVQAGGSLRLSCAASGLIFRYYAMGWYRQAPGKERELVAVISRRGDSTYYADSVKGRFTISRDNAKNTVYLHMNSLKPEDTAVYYCAAQAFVSYFKFRGGYWGQGTQVTVSS | high polyreactivity
18 | QVQLVESGGGLVQAGGSLRLSCAASGLTFADYAMGWYRQAPVKERELVAAISSSDTSTYYADSVKGRFTISRDNAKNTVYLQMNSLKPEDTAVYYCAADEGYVWPYYGWGFGKYDYWGQGTQVTVSS | low polyreactivity
19 | QVQIVESGGGLVQAGGSLRLSCAASGRIFYGYAMGWYRQAPGKEREFVARINVSGTSTFYADSVKGRFTISRDNAKNTVYLQMNSLKPEDTAVYYCAARGLPSNYYYYVHGYIMDYWGQGTQVTVSS | low polyreactivity
20 | QVQLVESGGGLVQAGGSLRLSCAASGLTFWLNAMGWYRQAPGKERELVAAIRYSGVGTYADSVKGRFTISRDNAKNTVYLQMNSLKPEDTAVYYCAALYNLGYPQFDYWGQGTQVTVSS | low polyreactivity
21 | QVQLQESAGALVQAGGSLRQSYAASGYIFPSLSMGRYRQAPGKEREFVAAIGRGSTNNYADSVKGRFTISRDNANNTAYQQMISLKPEDTAVYYCAAAASQLTRHLYWGQGTQVTVSS | low polyreactivity
